The text below walks through data of patent US20240084259A1, “STEM CELL-DERIVED MATURE CARDIOMYOCYTES AND CARDIOVASCULAR DISEASE MODEL USING SAME” (KOREA UNIVERSITY RESEARCH AND BUSINESS FOUNDATION, priority 2019, published 2024).

Holding throughout (type): cell-based
The subject of assay [1] is human embryonic stem cells (BG01 cell line). As to the kind of experiment: Morphology and beating of cardiomyocytes differentiated from stem cells (optical microscope). The following applies: FGFs 10 ng/ml, ascorbic acid 200 μg/ml; for day of differentiation on which beating cardiomyocytes were observed: control group 9th day; for cell morphology: treatment from 5th to 15th day of differentiation, vs control group. As for the experimental part: In order to increase the differentiation efficiency of stem cells into cardiomyocytes and to improve differentiation by cardiomyocyte type and mature differentiation, conditions for monolayer differentiation of human embryonic stem cells (BG01 cell line) into cardiomyocytes were established.
An E8 culture medium (STEMCELL Technologies) containing a 2 μM ROCK inhibitor (thiazovivin) was added to a 6-well culture plate coated with Matrigel, and embryonic stem cells dissociated into single cells using Accutase were seeded at 2.5×10^5 cells per well. Culture was carried out for about 3 days, and the E8 culture medium was exchanged until confluence of the 6-well culture plate with the cells. When confluence of the 6-well plate with the human embryonic stem cells was achieved, CHIR99021 (Sigma-Aldrich) as a GSK-3 inhibitor was added at a concentration of 6 μM to a CDM3 culture medium (containing RPMI 1640, serum albumin and ascorbic acid as three chemically verified components, P. W. Burridge et al., Nature Methods 11:855, 2014), followed by culture for 24 hours. Then, on the 2nd day of differentiation, 5 μM IWP2 (Inhibitor of Wnt Production 2) was added to the medium, followed by culture for 2 days. After addition of 10 ng/ml FGF2, 10 ng/ml FGF4, 10 ng/ml FGF10, 200 μg/ml ascorbic acid, and 10 ng/ml FGF4+200 μg/ml ascorbic acid on the 5th day of differentiation, culture was carried out until the 15th day of differentiation while the culture medium was exchanged every 48 hours with an RPMI+B27(-Insulin) medium (FIG. 1a).

Assay [2] has as its system human embryonic stem cells (BG01). The experiment in a line: Polymerase chain reaction for cell lineage markers during differentiation into cardiomyocytes. The following applies: 15th day, treated 5th to 15th day; FGFs 10 ng/ml, ascorbic acid 200 μg/ml; vs control group.
Text: (§1) In order to investigate the effect of FGF2 on differentiation by cardiomyocyte type, mature differentiation of cardiomyocytes, and differentiation of vascular smooth muscle cells, the expression of a cardiomyocyte marker (cTnT), mature cardiomyocyte marker (cTnI), ventricular cardiomyocyte marker (MLC2v), atrial cardiomyocyte markers (MLC2a, ANP), nodal cardiomyocyte markers (HCN4, TBX18), vascular smooth muscle cell markers (SMA, SM22), and vascular endothelial cell marker (CD31) in the control group and the group treated with 10 ng/ml FGF2 for 10 days from the 5th day to the 15th day during the differentiation of human embryonic stem cells (BG01) into cardiomyocytes was determined through polymerase chain reaction using primers for each cell lineage marker.
as §1, with “of FGF10” for “of FGF2”, “of the” for “of a”, “ng/ml FGF10” for “ng/ml FGF2”
as §1, with “of ascorbic acid” for “of FGF2”, “of the” for “of a”, “with 200 μg/ml ascorbic acid” for “with 10 ng/ml FGF2”
as §1, with “of FGF4” for “of FGF2”, “of the” for “of a”, “ng/ml FGF4” for “ng/ml FGF2”

Assay [3] has as its system human embryonic stem cells. As to the kind of experiment: FGF4 concentration series, polymerase chain reaction for MLC2v, MLC2a, TBX18, SMA. The protocol: In order to determine the appropriate concentration of FGF4 on the increase in gene expression of the ventricular cardiomyocyte marker (MLC2v), atrial cardiomyocyte marker (MLC2a), nodal cardiomyocyte marker (TBX18), and vascular smooth muscle cell marker (SMA) from human embryonic stem cells, after treatment with FGF4 at various concentrations for 10 days from the 5th day to the 15th day of differentiation, polymerase chain reaction was performed using primers for MLC2v, MLC2a, TBX18, and SMA.

For assay [4], the system named is human embryonic stem cells (BG01). As to the kind of experiment: Immunofluorescence staining of cardiomyocyte type markers. The note with it: 10 ng/ml FGF4 or 10 ng/ml FGF4+200 μg/ml ascorbic acid. As for the experimental part:
In order to investigate the effect of treatment with FGF4 alone and co-treatment with FGF4+ascorbic acid on type-specific differentiation and mature differentiation of human embryonic stem cells into cardiomyocytes, differences in expression of the cardiomyocyte marker (cTnT), ventricular cardiomyocyte marker (MLC2v), and atrial cardiomyocyte marker (MLC2a) after treatment with 10 ng/ml FGF4 or co-treatment with 10 ng/ml FGF4+200 μg/ml ascorbic acid for 10 days from the 5th day to the 15th day during the differentiation of human embryonic stem cells (BG01) into cardiomyocytes was confirmed through immunofluorescence staining (FIG. 7).

With “FGF2: FGF2, maturation factor compared at 10 ng/ml”, in assay [1], the “day of differentiation on which beating cardiomyocytes were observed” value (“day of differentiation” for short) was 9 days and the cell morphology result was “morphological changes similar to the control group”. Further, in assay [2], the “expression of atrial cardiomyocyte marker ANP (mRNA)” value is “significantly increased”, the “expression of mature cardiomyocyte marker cTnI (mRNA)” value is “no effect”, the “expression of nodal cardiomyocyte marker HCN4 (mRNA)” value was “significantly decreased” and the “expression of nodal cardiomyocyte marker TBX18 (mRNA)” value was “significantly decreased”. Moreover, in assay [2], the “expression of vascular endothelial cell marker CD31 (mRNA)” value is given as “significantly increased”, the “expression of vascular smooth muscle cell marker SM22 (mRNA)” value is recorded as “significantly decreased”, the “expression of vascular smooth muscle cell marker SMA (mRNA)” value was “significantly decreased” and the “expression of ventricular cardiomyocyte marker MLC2v (mRNA)” value is given as “no effect”.
On to `O=C1O[C@H]([C@@H](O)CO)C(O)=C1O` [ascorbic acid, reference compound], for which, in assay [1], the “day of differentiation” value turned out to be 9 days and the cell morphology result is recorded as “relatively flat morphology”. In addition, in assay [2], the “expression of atrial cardiomyocyte marker ANP (mRNA)” value is listed as “significantly increased”, the “expression of atrial cardiomyocyte marker MLC2a (mRNA)” value is reported as “significantly increased”, the “expression of cardiomyocyte marker cTnT (mRNA)” value is on record as “significantly increased” and the “expression of mature cardiomyocyte marker cTnI (mRNA)” value is “significantly increased”. Besides, in assay [2], the “expression of nodal cardiomyocyte marker HCN4 (mRNA)” value is “significantly decreased”, the “expression of nodal cardiomyocyte marker TBX18 (mRNA)” value is “significantly decreased”, the “expression of vascular smooth muscle cell marker SM22 (mRNA)” value is “significantly decreased” and the “expression of vascular smooth muscle cell marker SMA (mRNA)” value was “significantly decreased”. Also, in assay [2], the “expression of ventricular cardiomyocyte marker MLC2v (mRNA)” value is listed as “significantly increased”.

B1: FGF10: FGF10, maturation factor compared at 10 ng/ml (protein, UniProt O15520 38-208, looked up)
Fibroblast growth factor 10: QALGQDMVSPEATNSSSSSFSSPSSAGRHVRSYNHLQGDVRWRKLFSFTKYFLKIEKNGKVSGTKKENCPYSILEITSVEIGVVAVKAINSNYYLAMNKKGKLYGSKEFNNDCKLKERIEENGYNTYASFNWQHNGRQMYVALNGKGAPRRGQKTRRKNTSAHFLPMVVHS
For the molecule B1, in assay [1], the “day of differentiation” value stood at 9 days and the cell morphology result is on record as “morphological changes similar to the control group”. Further, in assay [2], the “expression of atrial cardiomyocyte marker MLC2a (mRNA)” value is “significantly increased”, the “expression of mature cardiomyocyte marker cTnI (mRNA)” value is “no effect”, the “expression of nodal cardiomyocyte marker HCN4 (mRNA)” value was “significantly increased” and the “expression of nodal cardiomyocyte marker TBX18 (mRNA)” value is on record as “significantly increased”. In assay [2], the “expression of vascular smooth muscle cell marker SMA (mRNA)” value is reported as “significantly increased” and the “expression of ventricular cardiomyocyte marker MLC2v (mRNA)” value is “no effect”.

B2: FGF4: fibroblast growth factor 4 (FGF4), maturation factor added to the differentiation medium (protein, UniProt P08620 31-206, looked up)
Fibroblast growth factor 4: APTAPNGTLEAELERRWESLVALSLARLPVAAQPKEAAVQSGAGDYLLGIKRLRRLYCNVGIGFHLQALPDGRIGGAHADTRDSLLELSPVERGVVSIFGVASRFFVAMSSKGKLYGSPFFTDECTFKEILLPNNYNAYESYKYPGMFIALSKNGKTKKGNRVSPTMKVTHFLPRL
In the case of B2, in assay [1], the “day of differentiation” value turned out to be 9 days and the cell morphology entry is on record as “formed in a thickened structure”. In addition, in assay [2], the “expression of atrial cardiomyocyte marker ANP (mRNA)” value is listed as “significantly increased”, the “expression of atrial cardiomyocyte marker MLC2a (mRNA)” value is given as “significantly increased”, the “expression of mature cardiomyocyte marker cTnI (mRNA)” value is listed as “significantly increased” and the “expression of nodal cardiomyocyte marker HCN4 (mRNA)” value is listed as “significantly decreased”. Moreover, in assay [2], the “expression of nodal cardiomyocyte marker TBX18 (mRNA)” value is “significantly decreased”, the “expression of vascular smooth muscle cell marker SM22 (mRNA)” value is “significantly decreased”, the “expression of vascular smooth muscle cell marker SMA (mRNA)” value is recorded as “significantly decreased” and the “expression of ventricular cardiomyocyte marker MLC2v (mRNA)” value is “significantly increased”. For the same molecule, in assay [3] (5 ng/ml FGF4, 5th to 15th day), the “gene expression of atrial cardiomyocyte type marker MLC2a” value was “started to increase”, the “gene expression of nodal cardiomyocyte marker TBX18” value is listed as “significantly decreased”, the “gene expression of vascular smooth muscle cell marker SMA” value is “significantly decrease” and the “gene expression of ventricular cardiomyocyte type marker MLC2v” value is recorded as “started to increase”. Besides, in assay [3] (10 ng/ml FGF4, 5th to 15th day), the “gene expression of atrial cardiomyocyte type marker MLC2a” value is reported as “highest”, the “gene expression of nodal cardiomyocyte marker TBX18” value is “significantly decreased”, the “gene expression of vascular smooth muscle cell marker SMA” value was “significantly decrease” and the “gene expression of ventricular cardiomyocyte type marker MLC2v” value is “highest”. Moreover, in assay [3] (25 ng/ml FGF4, 5th to 15th day), the “gene expression of atrial cardiomyocyte type marker MLC2a” value is “highest”, the “gene expression of nodal cardiomyocyte marker TBX18” value is listed as “significantly decreased”, the “gene expression of vascular smooth muscle cell marker SMA” value is “significantly decrease” and the “gene expression of ventricular cardiomyocyte type marker MLC2v” value is listed as “highest”. Further, in assay [3] (50 ng/ml FGF4, 5th to 15th day), the “gene expression of atrial cardiomyocyte type marker MLC2a” value was “observed to increase” and the “gene expression of ventricular cardiomyocyte type marker MLC2v” value was “observed to increase”. Besides, the “gene expression of nodal cardiomyocyte marker TBX18” value in assay [3] (100 ng/ml FGF4, 5th to 15th day) is on record as “significantly decreased”. Besides, in assay [4] (5th to 15th day, compared to control group), the “morphology of cardiomyocytes (immunostaining)” value was “agglomerated and thickened morphology”. Further, the “atrial cardiomyocyte marker MLC2a (immunostaining)” value in assay [4] (control group also positive) is “positive reaction”. The “expression of ventricular cardiomyocyte marker MLC2v (immunostaining)” value in assay [4] (in the thickened cells, 5th to 15th day) is “increased”.
